Test results as given in patent US20250296971A1, “GASTRIC INHIBITORY PEPTIDE RECEPTOR LIGANDS” (priority 2021, published 2025).
*1 amine or outer side, *2 acyl side, *3 side chain or, on linkers, in order; H or OH if unused. Bridges are numbered along the chain shown (N, C = ends). Primed or numbered codes have the meaning given here. [ ]: non-standard residue; d: D form. The star is where a group is joined. TBMB(SCH2CH2NH-DOTA) = O=C(O)CN1CCN(CC(=O)O)CCN(CC(=O)NCCSCc2cc(C[*:1])cc(C[*:2])c2)CCN(CC(=O)O)CC1; Ttds = 1,13-diamino-4,7,10-trioxatridecan-succinamic acid, NCCCOCCOCCOCCCNC(=O)CCC(=O)*; DOTA(In) = O=C1CN2CCN3CCN(CC(=O)*)CCN(CC2)CC(=O)[O][In]([O]1)[O]C(=O)C3; DOTA(Lu) = O=C1CN2CCN3CCN(CC(=O)*)CCN(CC2)CC(=O)[O][Lu]([O]1)[O]C(=O)C3; NH(1-deoxy-D-glucityl) = OC[C@@H](O)[C@@H](O)[C@H](O)[C@@H](O)CN*; (dE)(AGLU) = D-glutamic acid bearing 1-amino-1-deoxy-D-glucitol; APAc″ = 4-amino-1-carboxymethylpiperidine, NC1CCN(CC(=O)*)CC1; dE(AGLU) = D-glutamic acid bearing 1-amino-1-deoxy-D-glucitol; Pro(trans-4-NH2) = O=C([C@@H]1C[C@@H](N[*:3])CN1[*:1])[*:2]; DOTA = O=C(O)CN1CCN(CC(=O)O)CCN(CC(=O)*)CCN(CC(=O)O)CC1; MeO2kDaPEGAc = polydisperse 2 kDa PEG (methoxy, acetyl); 3MeBn = 3-methyl-benzylidene (derived from 1,3-xylene); 2Lut = 2,6-lutidylidene bridge between two thiols; N(CH2CH2CO)Gly = O=C(CN(CCC(=O)[*:3])[*:1])[*:2]; Trp(5-Br) = N[C@@H](Cc1c[nH]c2ccc(Br)cc12)C(=O)O; Trp(5-Cl) = N[C@@H](Cc1c[nH]c2ccc(Cl)cc12)C(=O)O; Pyridine(2,6-diCH2) = c1cc(C[*:1])nc(C[*:2])c1; 2Lut″ = 2,6-lutidylidene linking two thiols; APAc = 4-amino-1-carboxymethylpiperidine; mXylylene = c1cc(C[*:1])cc(C[*:2])c1; LuDOTA = DOTA Lutetium(III) complex; Glutaryl = O=C(CCCC(=O)[*:2])[*:1]; AGLU = 1-amino-1-deoxy-D-glucitol; Hyp = O=C(O)[C@@H]1C[C@@H](O)CN1; Cysteamide = C(CS[*:3])N[*:1]; Suc = O=C(CCC(=O)[*:2])[*:1]; ZnDOTA = DOTA zinc complex; αMeS = C[C@](N)(CO)C(=O)O; Api = NC1(C(=O)O)CCNCC1; Thp = NC1(C(=O)O)CCOCC1; Aib = CC(C)(N)C(=O)O; Sar = CNCC(=O)O

Target: human Gastric Inhibitory Peptide Receptor (human) (UniProt P48546)
Sequence (P48546 22-466 limits assumed): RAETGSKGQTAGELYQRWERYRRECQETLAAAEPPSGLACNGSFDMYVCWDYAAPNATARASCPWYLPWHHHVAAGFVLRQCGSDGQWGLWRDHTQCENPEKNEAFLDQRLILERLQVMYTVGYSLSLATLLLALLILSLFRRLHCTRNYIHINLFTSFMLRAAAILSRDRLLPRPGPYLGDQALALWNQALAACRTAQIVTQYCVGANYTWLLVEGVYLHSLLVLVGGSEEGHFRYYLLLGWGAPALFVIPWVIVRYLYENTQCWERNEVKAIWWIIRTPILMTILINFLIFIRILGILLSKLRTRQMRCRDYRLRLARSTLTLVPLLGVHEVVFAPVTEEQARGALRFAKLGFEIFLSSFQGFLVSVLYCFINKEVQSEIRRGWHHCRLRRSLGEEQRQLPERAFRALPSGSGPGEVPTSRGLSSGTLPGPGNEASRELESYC
Test: FACS competition with GIP-057 on CHO-K1-hGIPR cells; pIC50 category A: >8.0

## Suc-W[Trp(5-Cl)][Hyp]E[dL]C[Thp]LIC-{APAc-Lys(LuDOTA)-NH2} (linker 6-10 via 2Lut; also: Lu complex of DOTA) [HO-Succinyl-Trp-5Clw-Hyp-Glu-leu-[Cys(2Lut)-Thp-Leu-Ile-Cys]-APAc-Lys(LuDOTA)-NH2]
  pIC50: > 8 pic50

## {LuDOTA-Ttds}-DW[Trp(5-Cl)][Sar]E[dL]C[Aib]LI[Cysteamide] (linker 7-11 via mXylylene) [LuDOTA-Ttds-Asp-Trp-5Clw-Nmg-Glu-leu-[Cys(3MeBn)-Aib-Leu-Ile-AET]]
  pIC50: > 8 pic50

## {LuDOTA-Ttds}-DW[Trp(5-Cl)]PE[dL]C[Aib]LI[Cysteamide] (linker 7-11 via Pyridine(2,6-diCH2)) [LuDOTA-Ttds-Asp-Trp-5Clw-Pro-Glu-leu-[Cys(2Lut)-Aib-Leu-Ile-AET]]
  pIC50: > 8 pic50

## {AGLU-Glutaryl}-DW[Trp(5-Cl)][Hyp]E[dL]C[Thp]LIC-NH2 (linker 7-11 via Pyridine(2,6-diCH2)) [AGLU-Glutar-Asp-Trp-5Clw-Hyp-Glu-leu-[Cys(2Lut)-Thp-Leu-Ile-Cys]-NH2]
  pIC50: > 8 pic50

## {DOTA(In)-Ttds}-DW[Trp(5-Cl)][Sar]E[dL]C[Aib]LI[Cysteamide] (linker 7-11 via 3MeBn; also: DOTA as indium complex (InDOTA)) [InDOTA-Ttds-Asp-Trp-5Clw-Nmg-Glu-leu-[Cys(3MeBn)-Aib-Leu-Ile-AET]]
  pIC50: > 8 pic50

## Ac-DW[Trp(5-Cl)][Hyp]E[dL]C[Api](DOTA)LIC-NH2 (linker 7-11 via Pyridine(2,6-diCH2)) [Ac-Asp-Trp-5Clw-Hyp-Glu-leu-[Cys(2Lut)-Apc(DOTA)-Leu-Ile-Cys]-NH2]
  pIC50: > 8 pic50

## Ac-DW[Trp(5-Cl)][Pro(trans-4-NH2)]E[dL]C[Api](DOTA)LIC-NH2 (linker 7-11 via 2Lut″) [Ac-Asp-Trp-5Clw-Tap-Glu-leu-[Cys(2Lut)-Apc(DOTA)-Leu-Ile-Cys]-NH2]
  pIC50: > 8 pic50

## Ac-DW[Trp(5-Cl)][Hyp]E[dL]C[Thp]LIC-{APAc-(dE)(AGLU)-NH2} (linker 7-11 via Pyridine(2,6-diCH2)) [Ac-Asp-Trp-5Clw-Hyp-Glu-leu-[Cys(2Lut)-Thp-Leu-Ile-Cys]-APAc-glu(AGLU)-NH2]
  pIC50: > 8 pic50

## Suc-W[Trp(5-Cl)][Hyp]E[dL]C[Api](DOTA(Lu))LI[Cysteamide] (linker 6-10 via 2Lut; also: Lu complex of DOTA) [HO-Succinyl-Trp-5Clw-Hyp-Glu-leu-[Cys(2Lut)-Apc(LuDOTA)-Leu-Ile-AET]]
  pIC50: > 8 pic50

## MeO2kDaPEGAc-DW[Trp(5-Cl)][Hyp]E[dL]C[Thp]LIC-{dK(DOTA)-NH2} (linker 7-11 via Pyridine(2,6-diCH2)) [MeO2kDaPEGAc-Asp-Trp-5Clw-Hyp-Glu-leu-[Cys(2Lut)-Thp-Leu-Ile-Cys]-lys(DOTA)-NH2]
  pIC50: > 8 pic50

## {LuDOTA-APAc″}-DW[Trp(5-Cl)][Hyp]E[dL]C[Thp]LI[Cysteamide] (linker 7-11 via Pyridine(2,6-diCH2)) [LuDOTA-APAc-Asp-Trp-5Clw-Hyp-Glu-leu-[Cys(2Lut)-Thp-Leu-Ile-AET]]
  pIC50: > 8 pic50

B1: AGLU-Glutar-Asp-Trp-5Brw-Tap-Glu-leu-[Cys(2Lut)-Apc(DOTA)-Leu-Ile-Cys]-APAc-glu(AGLU)-NH2 (peptide)
peptide: DWXXEXCXLIC
modifications: N-term AGLU-Glutar; 5Brw; Tap; leu (D-Leu); thioether cycle [Cys(2Lut)..Cys]; Apc(DOTA); C-term APAc-glu(AGLU)-NH2
  pIC50: > 8 pic50

## Suc-W[Trp(5-Cl)][Hyp]E[dL]C[Thp]LIC-{APAc-Lys(InDOTA)-NH2} (linker 6-10 via 2Lut; also: In complex of DOTA) [HO-Succinyl-Trp-5Clw-Hyp-Glu-leu-[Cys(2Lut)-Thp-Leu-Ile-Cys]-APAc-Lys(InDOTA)-NH2]
  pIC50: > 8 pic50

## {LuDOTA-Ttds}-DW[Trp(5-Cl)][Hyp]E[dL]C[Aib]LI[Cysteamide] (linker 7-11 via mXylylene) [LuDOTA-Ttds-Asp-Trp-5Clw-Hyp-Glu-leu-[Cys(3MeBn)-Aib-Leu-Ile-AET]]
  pIC50: > 8 pic50

## {AGLU-Glutaryl}-DW[Trp(5-Cl)][Hyp]E[dL]C[Thp]LIC-{APAc-dE(AGLU)-NH2} (linker 7-11 via Pyridine(2,6-diCH2)) [AGLU-Glutar-Asp-Trp-5Clw-Hyp-Glu-leu-[Cys(2Lut)-Thp-Leu-Ile-Cys]-APAc-glu(AGLU)-NH2]
  pIC50: > 8 pic50

## {AGLU-Glutaryl-APAc}-DW[Trp(5-Br)][Pro(trans-4-NH2)]E[dL]C[Api](DOTA)LIC-{APAc-dE(AGLU)-NH2} (linker 7-11 via Pyridine(2,6-diCH2)) [AGLU-Glutar-APAc-Asp-Trp-5Brw-Tap-Glu-leu-[Cys(2Lut)-Apc(DOTA)-Leu-Ile-Cys]-APAc-glu(AGLU)-NH2]
  pIC50: > 8 pic50

## Ac-DW[Trp(5-Cl)][N(CH2CH2CO)Gly](NH(1-deoxy-D-glucityl))E[dL]C[Thp]LIC-NH2 (linker 7-11 via Pyridine(2,6-diCH2)) [Ac-Asp-Trp-5Clw-Nglu(AGLU)-Glu-leu-[Cys(2Lut)-Thp-Leu-Ile-Cys]-NH2]
  pIC50: > 8 pic50

## {AGLU-Glutaryl-APAc}-DW[Trp(5-Cl)][Pro(trans-4-NH2)]E[dL]C[Api](DOTA)LIC-{APAc-dE(AGLU)-NH2} (linker 7-11 via Pyridine(2,6-diCH2)) [AGLU-Glutar-APAc-Asp-Trp-5Clw-Tap-Glu-leu-[Cys(2Lut)-Apc(DOTA)-Leu-Ile-Cys]-APAc-glu(AGLU)-NH2]
  pIC50: > 8 pic50

## Ac-DW[Trp(5-Cl)][Hyp]E[dL]C[Thp]LIC-NH2 (linker 7-11 via TBMB(SCH2CH2NH-DOTA)) [Ac-Asp-Trp-5Clw-Hyp-Glu-leu-[Cys(tMeBn(DOTA-AET))-Thp-Leu-Ile-Cys]-NH2]
  pIC50: > 8 pic50

B2: Ac-Asp-Trp-5Clw-Tap(AGLU-Glutar)-Glu-leu-[Cys(2Lut)-Thp-Leu-Ile-Cys]-NH2 (peptide)
peptide: Ac-DW[Trp(5-Cl)][Pro(trans-4-NH2)]E[dL]C[Thp]LIC-NH2
modifications: linker 7-11 via Pyridine(2,6-diCH2); not fully specified (residue 4); printed as Ac-Asp-Trp-5Clw-Tap(AGLU-Glutar)-Glu-leu-[Cys(2Lut)-Thp-Leu-Ile-Cys]-NH2
  pIC50: > 8 pic50

## {DOTA(In)-Ttds}-DW[Trp(5-Cl)]PE[dL]C[Thp]LI[Cysteamide] (linker 7-11 via mXylylene; also: indium(III) complexed in DOTA) [InDOTA-Ttds-Asp-Trp-5Clw-Pro-Glu-leu-[Cys(3MeBn)-Thp-Leu-Ile-AET]]
  pIC50: > 8 pic50

## {DOTA(In)-Ttds}-DW[Trp(5-Cl)]PE[dL]C[αMeS]LI[Cysteamide] (linker 7-11 via 3MeBn; also: DOTA as indium complex (InDOTA)) [InDOTA-Ttds-Asp-Trp-5Clw-Pro-Glu-leu-[Cys(3MeBn)-Ams-Leu-Ile-AET]]
  pIC50: > 8 pic50

## {LuDOTA-APAc″}-DW[Trp(5-Cl)]PE[dL]C[Aib]LI[Cysteamide] (linker 7-11 via mXylylene) [LuDOTA-APAc-Asp-Trp-5Clw-Pro-Glu-leu-[Cys(3MeBn)-Aib-Leu-Ile-AET]]
  pIC50: > 8 pic50

## {LuDOTA-Ttds}-DW[Trp(5-Cl)]PE[dL]C[Thp]LI[Cysteamide] (linker 7-11 via mXylylene) [LuDOTA-Ttds-Asp-Trp-5Clw-Pro-Glu-leu-[Cys(3MeBn)-Thp-Leu-Ile-AET]]
  pIC50: > 8 pic50

## {DOTA(In)-Ttds}-DW[Trp(5-Cl)]PE[dL]C[Aib]LI[Cysteamide] (linker 7-11 via 2Lut; also: DOTA as indium complex (InDOTA)) [InDOTA-Ttds-Asp-Trp-5Clw-Pro-Glu-leu-[Cys(2Lut)-Aib-Leu-Ile-AET]]
  pIC50: > 8 pic50

## {LuDOTA-Ttds}-DW[Trp(5-Cl)]PE[dL]C[αMeS]LI[Cysteamide] (linker 7-11 via mXylylene) [LuDOTA-Ttds-Asp-Trp-5Clw-Pro-Glu-leu-[Cys(3MeBn)-Ams-Leu-Ile-AET]]
  pIC50: > 8 pic50

## {AGLU-Glutaryl}-DW[Trp(5-Cl)][Hyp]E[dL]C[Api](ZnDOTA)LI[Cysteamide] (linker 7-11 via Pyridine(2,6-diCH2)) [AGLU-Glutar-Asp-Trp-5Clw-Hyp-Glu-leu-[Cys(2Lut)-Apc(ZnDOTA)-Leu-Ile-AET]]
  pIC50: > 8 pic50

## {DOTA(In)-Ttds}-DW[Trp(5-Cl)]PE[dL]C[Aib]LI[Cysteamide] (linker 7-11 via 3MeBn; also: DOTA as indium complex (InDOTA)) [InDOTA-Ttds-Asp-Trp-5Clw-Pro-Glu-leu-[Cys(3MeBn)-Aib-Leu-Ile-AET]]
  pIC50: > 8 pic50
